The values below come from the supplement of paper PMC10567573.

B1: PDS5B (parent)
chain: ITYPPGVKEISDKISKEEMVRRLK
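Further: lentivirally expressed fusions sorted by FACS into six bins by GFP to DsRed ratio, PSI derived from sequencing read proportions per bin multiplied by bin number.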

The variants in this data set derive from B1. Kind of data set: protein stability index of a GFP-peptide fusion (GPS, HEK-293T) (PSI 1-6); higher = more stable. Particulars: c terminus: a fixed tail appended.
On to ITYPPGVKEIKDKISKEEMVRRLK, for which the protein stability index came out at 4.72. The same measure for ITYPPGVKEIFDKISKEEMVRRLK: 3.3; for ITYPPGVKEITDKISKEEMVRRLK: 4.08.

On to ITYPPGVKEIRDKISKEEMVRRLK, for which the protein stability index worked out at 3.4.

ITYPPGVKEIEDKISKEEMVRRLK: the protein stability index is 4.04.

For the variant ITYPPGVKEIHDKISKEEMVRRLK, the protein stability index came out at 4.04. The same measure for ITYPPGVKEIVDKISKEEMVRRLK: 2.8; for ITYPPGVKEIADKISKEEMVRRLK: 3.85. ITYPPGVKEIMDKISKEEMVRRLK: the protein stability index is 2.35.

As to ITYPPGVKEIGDKISKEEMVRRLK, the protein stability index is 3.92.

Turning to ITYPPGVKEIWDKISKEEMVRRLK, the protein stability index turned out to be 2.67. With ITYPPGVKEINDKISKEEMVRRLK the figure was 3.98; with ITYPPGVKEIIDKISKEEMVRRLK, 2.83.

As to ITYPPGVKEILDKISKEEMVRRLK, the protein stability index was found to be 2.38.

With ITYPPGVKEIQDKISKEEMVRRLK, the protein stability index amounted to 4.16. With ITYPPGVKEICDKISKEEMVRRLK, the protein stability index is 3.94.

Consider ITYPPGVKEIPDKISKEEMVRRLK, for which the protein stability index is 4.29. The same measure for ITYPPGVKELSDKISKEEMVRRLK: 4.33. With ITYPPGVKEPSDKISKEEMVRRLK, the protein stability index stood at 4.27.

With ITYPPGVKEQSDKISKEEMVRRLK, the protein stability index was determined as 4.36.

ITYPPGVKEASDKISKEEMVRRLK: the protein stability index was 4.03. In the case of ITYPPGVKEHSDKISKEEMVRRLK, the protein stability index was found to be 3.62. The same measure for ITYPPGVKERSDKISKEEMVRRLK: 3.74; for ITYPPGVKEYSDKISKEEMVRRLK: 4.44; for ITYPPGVKEESDKISKEEMVRRLK: 4.38. Regarding ITYPPGVKEFSDKISKEEMVRRLK, the protein stability index was determined as 4.31. For the variant ITYPPGVKEGSDKISKEEMVRRLK, the protein stability index is 4.61. With ITYPPGVKENSDKISKEEMVRRLK, the protein stability index was 4.68.

With ITYPPGVKESSDKISKEEMVRRLK, the protein stability index came to 4.53. With ITYPPGVKEDSDKISKEEMVRRLK the figure was 4.88. ITYPPGVKEVSDKISKEEMVRRLK: the protein stability index was determined as 4.62.

With ITYPPGVKEISDPISKEEMVRRLK, the protein stability index is 4.52.

In the case of ITYPPGVKEISDEISKEEMVRRLK, the protein stability index worked out at 4.34. With ITYPPGVKEISDLISKEEMVRRLK, the protein stability index amounted to 3.3. On to ITYPPGVKEISDRISKEEMVRRLK, for which the protein stability index amounted to 4.39. The same measure for ITYPPGVKEISDAISKEEMVRRLK: 4.08. With ITYPPGVKEISDDISKEEMVRRLK the figure was 4.69; with ITYPPGVKEISDMISKEEMVRRLK, 3.76. With ITYPPGVKEISDCISKEEMVRRLK the figure was 2.79; with ITYPPGVKEISDFISKEEMVRRLK, 3.42. Take ITYPPGVKEISDIISKEEMVRRLK: the protein stability index turned out to be 4.1. As for ITYPPGVKEISDYISKEEMVRRLK, the protein stability index turned out to be 3.38. ITYPPGVKEISDNISKEEMVRRLK: the protein stability index was 3.72. The same measure for ITYPPGVKEISDWISKEEMVRRLK: 2.84; for ITYPPGVKEISDTISKEEMVRRLK: 3.96; for ITYPPGVKEISDHISKEEMVRRLK: 3.7. The same measure for ITYPPGVKEISDGISKEEMVRRLK: 3.75. In the case of ITYPPGVKEISDQISKEEMVRRLK, the protein stability index worked out at 4.33. ITYPPGVKEISDVISKEEMVRRLK: the protein stability index turned out to be 3.51. With ITYPPGVKEISDSISKEEMVRRLK the figure was 4.35; with ITYPPGVKWISDKISKEEMVRRLK, 2.24.

For ITYPPGVKNISDKISKEEMVRRLK, the protein stability index amounted to 3.59. In the case of ITYPPGVKPISDKISKEEMVRRLK, the protein stability index worked out at 2.75. With ITYPPGVKQISDKISKEEMVRRLK the figure was 3.35. Consider ITYPPGVKIISDKISKEEMVRRLK, for which the protein stability index was found to be 3.15. With ITYPPGVKYISDKISKEEMVRRLK the figure was 2.79; with ITYPPGVKSISDKISKEEMVRRLK, 3.81; with ITYPPGVKTISDKISKEEMVRRLK, 3.15. With ITYPPGVKLISDKISKEEMVRRLK the figure was 2.09; with ITYPPGVKRISDKISKEEMVRRLK, 2.11. With ITYPPGVKMISDKISKEEMVRRLK the figure was 3.51; with ITYPPGVKKISDKISKEEMVRRLK, 3.66. For the variant ITYPPGVKHISDKISKEEMVRRLK, the protein stability index is 3.43. With ITYPPGVKEISIKISKEEMVRRLK the figure was 3.04. The same measure for ITYPPGVKEISTKISKEEMVRRLK: 3.69.

Regarding ITYPPGVKEISVKISKEEMVRRLK, the protein stability index turned out to be 3.3. The same measure for ITYPPGVKEISGKISKEEMVRRLK: 3.15.

Consider ITYPPGVKEISNKISKEEMVRRLK, for which the protein stability index came to 4.05. As to ITYPPGVKEISEKISKEEMVRRLK, the protein stability index stood at 3.57. The same measure for ITYPPGVKEISWKISKEEMVRRLK: 2.85; for ITYPPGVKEISFKISKEEMVRRLK: 2.71; for ITYPPGVKEISAKISKEEMVRRLK: 2.75. On to ITYPPGVKEISPKISKEEMVRRLK, for which the protein stability index is 3.7. As for ITYPPGVKEISRKISKEEMVRRLK, the protein stability index stood at 3.19. Regarding ITYPPGVKEISYKISKEEMVRRLK, the protein stability index was determined as 2.46. The same measure for ITYPPGVKEISHKISKEEMVRRLK: 3.83; for ITYPPGVKEISKKISKEEMVRRLK: 3.43.

Regarding ITYPPGVKEISLKISKEEMVRRLK, the protein stability index stood at 3.18. With ITYPPGVKEISCKISKEEMVRRLK the figure was 3.03; with ITYPPGVKEISQKISKEEMVRRLK, 3.29.

Consider ITYPPGVKEISDKASKEEMVRRLK, for which the protein stability index was 4.5. The same measure for ITYPPGVKEISDKWSKEEMVRRLK: 3.03; for ITYPPGVKEISDKRSKEEMVRRLK: 4.38. With ITYPPGVKEISDKVSKEEMVRRLK the figure was 4.02; with ITYPPGVKEISDKNSKEEMVRRLK, 2.93. With ITYPPGVKEISDKESKEEMVRRLK the figure was 4.61. Turning to ITYPPGVKEISDKLSKEEMVRRLK, the protein stability index was 4.08. As to ITYPPGVKEISDKTSKEEMVRRLK, the protein stability index is 4.08. The same measure for ITYPPGVKEISDKMSKEEMVRRLK: 4.34; for ITYPPGVKEISDKQSKEEMVRRLK: 5.02; for ITYPPGVKEISDKFSKEEMVRRLK: 3.03. As for ITYPPGVKEISDKSSKEEMVRRLK, the protein stability index was 4.86. Consider ITYPPGVKEISDKCSKEEMVRRLK, for which the protein stability index was 3.27. In the case of ITYPPGVKEISDKHSKEEMVRRLK, the protein stability index is 5.35.
